B2: human dual oxidase 1 (hDUOX1), matured protein 20-1551 with N-terminal GFP tag (enzyme, UniProt Q9NRD9-1 20-1551, looked up)
chain: GAQNPISWEVQRFDGWYNNLMEHRWGSKGSRLQRLVPASYADGVYQPLGEPHLPNPRDLSNTISRGPAGLASLRNRTVLGVFFGYHVLSDLVSVETPGCPAEFLNIRIPPGDPMFDPDQRGDVVLPFQRSRWDPETGRSPSNPRDPANQVTGWLDGSAIYGSSHSWSDALRSFSRGQLASGPDPAFPRDSQNPLLMWAAPDPATGQNGPRGLYAFGAERGNREPFLQALGLLWFRYHNLWAQRLARQHPDWEDEELFQHARKRVIATYQNIAVYEWLPSFLQKTLPEYTGYRPFLDPSISSEFVAASEQFLSTMVPPGVYMRNASCHFQGVINRNSSVSRALRVCNSYWSREHPSLQSAEDVDALLLGMASQIAEREDHVLVEDVRDFWPGPLKFSRTDHLASCLQRGRDLGLPSYTKARAALGLSPITRWQDINPALSRSNDTVLEATAALYNQDLSWLELLPGGLLESHRDPGPLFSTIVLEQFVRLRDGDRYWFENTRNGLFSKKEIEEIRNTTLQDVLVAVINIDPSALQPNVFVWHKGDPCPQPRQLSTEGLPACAPSVVRDYFEGSGFGFGVTIGTLCCFPLVSLLSAWIVARLRMRNFKRLQGQDRQSIVSEKLVGGMEALEWQGHKEPCRPVLVYLQPGQIRVVDGRLTVLRTIQLQPPQKVNFVLSSNRGRRTLLLKIPKEYDLVLLFNLEEERQALVENLRGALKESGLSIQEWELREQELMRAAVTREQRRHLLETFFRHLFSQVLDINQADAGTLPLDSSQKVREALTCELSRAEFAESLGLKPQDMFVESMFSLADKDGNGYLSFREFLDILVVFMKGSPEEKSRLMFRMYDFDGNGLISKDEFIRMLRSFIEISNNCLSKAQLAEVVESMFRESGFQDKEELTWEDFHFMLRDHNSELRFTQLCVKGVEVPEVIKDLCRRASYISQDMICPSPRVSARCSRSDIETELTPQRLQCPMDTDPPQEIRRRFGKKVTSFQPLLFTEAHREKFQRSCLHQTVQQFKRFIENYRRHIGCVAVFYAIAGGLFLERAYYYAFAAHHTGITDTTRVGIILSRGTAASISFMFSYILLTMCRNLITFLRETFLNRYVPFDAAVDFHRLIASTAIVLTVLHSVGHVVNVYLFSISPLSVLSCLFPGLFHDDGSEFPQKYYWWFFQTVPGLTGVVLLLILAIMYVFASHHFRRRSFRGFWLTHHLYILLYVLLIIHGSFALIQLPRFHIFFLVPAIIYGGDKLVSLSRKKVEISVVKAELLPSGVTHLRFQRPQGFEYKSGQWVRIACLALGTTEYHPFTLTSAPHEDTLSLHIRAAGPWTTRLREIYSAPTGDRCARYPKLYLDGPFGEGHQEWHKFEVSVLVGGGIGVTPFASILKDLVFKSSVSCQVFCKKIYFIWVTRTQRQFEWLADIIREVEENDHQDLVSVHIYITQLAEKFDLRTTMLYICERHFQKVLNRSLFTGLRSITHFGRPPFEPFFNSLQEVHPQVRKIGVFSCGPPGMTKNVEKACQLINRQDRTHFSHHYENF
modifications: N-linked glycosylation
notes: human DUOX1, matured protein residues 20-1551; Secretion guided by a rat FSHbeta signal peptide before the GFP tag; GFP-tagged protein is 219 kDa; also called GFP-tagged hDUOX1; WT hDOUX1; source: HEK293F, BacMam baculovirus infection; digitonin-solubilised membrane for FSEC; purified with hDUOXA1 (Streptactin beads, peptidisc with NSPr, Superose 6 increase) for cryo-EM; not shown: GFP, …

Data set [1] concerns the target B2. Put plainly: cryo-EM structure; hDUOX1-hDUOXA1 complex in peptidisc (NSPr); 2.5 mM EGTA (low calcium) or 0.5 mM free calcium (high calcium); 100 uM FAD, 500 uM NADPH, 0.5 mM fluorinated octyl-maltoside. The following applies: both partners purified.
Data set [2] deals with the molecule itself. The experiment in a line: SEC; fluorescence size-exclusion chromatography (FSEC) of GFP-tagged hDUOX1 co-expressed with hDUOXA1; membrane solubilised in TBS + 1% digitonin, 1 h, 4 °C. For orientation: SEC sorts molecules by how far they enter the pores of the column.

Results on two molecules are retold here after article PMC7794343, “Structures of human dual oxidase 1 complex in low-calcium and high-calcium states” (Nature Communications, 2021).

As usually defined, the stoichiometry N is a count of units in the complex or per binding partner.

B1: human dual oxidase maturation factor 1 (hDUOXA1), as in the purified peptidisc complex (natural protein)
chain: MATLGHTFPFYAGPKPTFPMDTTLASIIMIFLTALATFIVILPGIRGKTRLFWLLRVVTSLFIGAAILAVNFSSEWSVGQVSTNTSYKAFSSEWISADIGLQVGLGGVNITLTGTPVQQLNETINYNEEFTWRLGENYAEEYAKALEKGLPDPVLYLAEKFTPRSPCGLYRQYRLAGHYTSAMLWVAFLCWLLANVMLSMPVLVYGGYMLLATGIFQLLALLFFSMATSLTSPCPLHLGASVLHTHHGPAFWITLTTGLLCVLLGLAMAVAHRMQPHRLKAFFNQSVDEDPMLEWSPEEGGLLSPRYRSMADSPKSQDIPLSEASSTKAY
modifications: N-linked glycosylation on N109
notes: human DUOXA1; cDNA cloned into a non-tagged BacMam vector or one with C-terminal MBP-mScarlet tag; the non-tagged one is surmised here; source: HEK293F, BacMam baculovirus infection, co-expressed with hDUOX1 from a bicistronic vector; purified with hDUOX1 (Streptactin beads, peptidisc, Superose 6 increase)
Consider B1, for which the “stoichiometry N” value in data set [1] was 1 hDUOXA1 per hDUOX1 (2:2). For B2, the binding result in data set [2] is given as “binds”.
